± gives the standard deviation.
Assay: protein stability index of a GFP-peptide fusion (GPS, HEK-293T) (PSI 1-6); higher = more stable
[1] = treatment: DMSO, c terminus: a fixed tail appended
[2] = treatment: MLN4924 1 uM, 8 h, c terminus: a fixed tail appended
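Also: 24-mer peptide tiles fused after GFP, lentivirally expressed, FACS-sorted into six equal bins by GFP/DsRed ratio, decoded by Illumina sequencing, PSI is the read-weighted mean bin number.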

Sequence | protein stability index [1] | protein stability index [2] | protein stability index (treatment: DMSO, c terminus: native) | protein stability index (treatment: MLN4924 1 uM, 8 h, c terminus: native)
PAPASSTPQEPWPGPTAPSPTSRP [PDLIM7] | 5.07 ± 0.093 | 5.13 ± 0.22 |  | 
GRYAYVRGGGDPWTNGSGLALCQR [MCOLN1] | 2.56 ± 0.37 | 3.02 ± 0.2 |  | 
LNVNLNSVVLRRARGGAVSARYVL [DUSP5] | 2.19 ± 0.54 | 2.26 ± 0.51 |  | 
STDTAVTNEWEKRLSTSPVRLAAR [EPB41L3] | 4.3 ± 0.26 | 4.44 ± 0.18 |  | 
AQQLLCDEQAPQRQRLLADLLHNV [DFFB] | 3.98 ± 0.16 | 3.92 ± 0.24 |  | 
MSLLHLGALYGITLIPTCKFYTWL [SCD] | 3.01 ± 0.57 | 3.74 ± 0.94 |  | 
IEVFRRKRKMHLVFEYCDHTLLNE [CDKL4] | 2.54 ± 0.98 | 2.33 ± 0.14 |  | 
ENANLQEYVEKETQEKKRLSRTNE [MTUS2] | 5.33 ± 0.45 | 5.35 ± 0.18 |  | 
VMSGKMSVSKAQSIYGIPHSTLEY [LCOR] | 2.38 ± 0.19 | 2.23 ± 0.076 |  | 
IQYEMEYTEGISQRMRVPEKLKVA [MFF] | 2.98 ± 0.28 | 3.08 ± 0.64 |  | 
KLDLWSFLDIPRSRLVKYPLLLKE [NET1] | 2.21 ± 0.52 | 1.94 ± 0.47 |  | 
VIDAEPFIRCSLQCRDLVDEAKKF [KLHL12] | 2.58 ± 0.46 | 2.35 ± 0.065 |  | 
MAVDKDTTNVGRYPVGRFPSLHVV [FEM1A] | 2.67 ± 0.3 | 2.72 ± 0.34 |  | 
VVPSYIPLVKKHCDDSFTPQEKLW [CPOX] | 2.93 ± 0.15 | 2.98 ± 0.35 |  | 
KKLRLNGGRNPYEGRVEVLVERNG [LOXL2] | 3.05 ± 0.13 | 4.01 ± 0.18 |  | 
RFRFPSPILKVQYHPRDQNKVLVC [RBBP5] | 2.32 ± 0.11 | 2.32 ± 0.21 |  | 
LFRWPDLQHAVELKPLCGCHSFAA [SMAD6] | 2.27 ± 0.26 | 2.13 ± 0.49 |  | 
LRLLREEEYVAPPRGPLPTLQVVP [TRAF3IP2] | 2.96 ± 0.3 | 3.23 ± 0.14 |  | 
IRINPQSWFDNGSICMRMEILGCP [CPXM2] | 2.86 ± 0.53 | 2.68 ± 0.59 |  | 
VYRDLKPENILLDRDGHIKLTDFG [PRKX] | 3.07 ± 0.28 | 3.54 ± 0.24 |  | 
LRWERAWFPPAIMGVVSLVFLIIY [ARL6IP1] | 3.17 ± 0.1 | 3.08 ± 0.31 |  | 
FPGVVARPIGEFRSNADYQYQLLR [CNOT7] | 3.05 ± 0.3 | 2.97 ± 0.2 |  | 
SGHALRILIVDWDVHHGNGTQHMF [HDAC6] | 2.74 ± 0.44 | 3.02 ± 0.75 |  | 

Sequence | protein stability index [1] | protein stability index [2] | protein stability index (treatment: DMSO, c terminus: native) | protein stability index (treatment: MLN4924 1 uM, 8 h, c terminus: native)
TNNKVYAAKIIPHSRVAKPHQREK [PLK2] | 3.71 ± 0.2 | 4.08 ± 0.57 |  | 
LAEVAPVVTTEHILVSVAAGVSLS [PYCR3] | 2.22 ± 0.27 | 2.44 ± 0.21 |  | 
AVTSLSSQIQYMNTVVSTYVTTNV [TMEM106C] | 2.58 ± 0.67 | 2.51 ± 0.39 |  | 
VVVKLLHPPSHWPLIKATVGLIRN [CTNNB1] | 2.48 ± 0.66 | 2.51 ± 0.64 |  | 
IAVKTLGIGKNVICDRTATPLDAF [GFOD1] | 2.43 ± 0.14 | 2.53 ± 0.17 |  | 
PLLLFTYLNSFLHQRIPQSVRILG [SLC29A1] | 2.96 ± 0.54 | 2.97 ± 0.54 |  | 
TESQLTPCIRNVTSPTRQHHVERE [BTBD10] | 4.99 ± 0.16 | 4.95 ± 0.17 |  | 
SRALALFDIQKIMQEKNPVHVIGV [ZNF8] | 2.52 ± 0.27 | 1.89 ± 0.39 |  | 
TWTKHAEGGIFTSPNYPSKYPPDR [NETO1] | 3.94 ± 0.19 | 3.85 ± 0.065 |  | 
KPYECNECGKAFSQSSYLSQHRRI [ZNF232] | 2.32 ± 0.073 | 2.44 ± 0.32 |  | 
VAPATWSAGVPPSAPLQGAVPPTS [SNAP91] | 4.38 ± 0.25 | 4.39 ± 0.29 |  | 
ESGVSVSNSQPTNESHSIKAILKN [SLC29A1] | 5.03 ± 0.53 | 4.9 ± 0.46 |  | 
CLLICAEMYQVSRLQHICELFIIT [RHOBTB3] | 3.06 ± 0.38 | 3 ± 0.27 |  | 
GVIRMWADEGSRNSRFQMLFTSFQ [NETO1] | 2.34 ± 0.4 | 2.27 ± 0.28 |  | 
PNTYYEGGYFKARLKFPIDYPYSP [CDC34] | 2.32 ± 0.17 | 2.39 ± 0.21 |  | 
LGFAYAKEDKIMLDDRKNEEDGGA [MIA2] | 4.96 ± 0.13 | 5.18 ± 0.2 |  | 
LQAFGETLLLELEQDSGVQVEGLT [ADAMTS4] | 3.65 ± 0.63 | 3.79 ± 0.27 |  | 
CLVKGIFYHCSNDDEGDSYSDNPC [SPRY1] | 2.61 ± 0.23 | 2.89 ± 0.15 |  | 
TMLTVIEQPVPPTPATPEDPAPLW [EMID1] | 3.76 ± 0.28 | 3.77 ± 0.23 |  | 
DTYIVLAWISKIKGSPDVSASSDE [SMIM2] | 2.42 ± 0.6 | 2.41 ± 0.27 |  | 
DGIDPFPLLMNRQRVPKVLVENAK [EFHC1] | 3.77 ± 0.24 | 3.97 ± 0.22 |  | 
EEHSLEQVQSMVVGEVLKDIETAC [SPDEF] | 4.8 ± 0.26 | 4.85 ± 0.091 |  | 
FRQRCLERMRNSRDRLLNRYRQAG [RPAIN] | 3.15 ± 0.12 | 3.2 ± 0.15 |  | 

Sequence | protein stability index [1] | protein stability index [2] | protein stability index (treatment: DMSO, c terminus: native) | protein stability index (treatment: MLN4924 1 uM, 8 h, c terminus: native)
RGRTQLFSLNPRSGSLITAGRIDR [PCDHGA10] | 3.29 ± 0.13 | 3.31 ± 0.34 |  | 
AVGQDCYTRIWSLHDARLLRTIPS [DCAF4] | 2.48 ± 0.36 | 2.39 ± 0.26 |  | 
TPKCSSPRGQEGSRQDKPLSPAGS [YJU2B] | 5 ± 0.23 | 5.21 ± 0.23 |  | 
ELAGVDTELLAERFYYQALSVAPQ [SMG5] | 2.68 ± 0.25 | 2.88 ± 0.16 |  | 
HDTKDQSPSRAPGLRQRASNKVQD [HMOX1] | 5.58 ± 0.24 | 5.29 ± 0.14 |  | 
SSQLAQMQCLISNVEAQLSEIRCD [KRT36] | 3 ± 0.075 | 3.1 ± 0.31 |  | 
LHRILHHKHVVQFYHYFEDKENIY [PLK2] | 2.58 ± 0.51 | 2.32 ± 0.38 |  | 
KMIMDTAGNDPYCFVEFHEHRHAA [TIA1] | 3.28 ± 0.17 | 3.26 ± 0.29 |  | 
LKIFTEDLPEVESLPRDRVLGFLI [VPS39] | 2.25 ± 0.49 | 2.23 ± 0.43 |  | 
DSDDPSVTLELSQLSMLPHLADLV [VDR] | 3.41 ± 0.31 | 3.62 ± 0.33 |  | 
TQRQFTILNFNDLMSSAVPMTPED [AASDHPPT] | 3.74 ± 0.14 | 3.38 ± 0.35 |  | 
AAEGEGSPPAVAAVAGPPAAAEVG [ANKRD17] | 5.63 ± 0.23 | 5.21 ± 0.43 |  | 
YLGSAYHASKCEFLANLHITALLN [DUSP5] | 2.58 ± 0.69 | 2.61 ± 0.47 |  | 
TFASLETVGIYFGLVYRIHSVLQG [TMEM40] | 3.59 ± 0.44 | 3.24 ± 0.23 |  | 
GLSAEDGVWAVIISHQQCWASTSP [TRIM15] | 2.88 ± 0.51 | 2.39 ± 0.73 |  | 
IYLATSSSKFYDLFLMECEESPNG [RHOBTB1] | 2.66 ± 1.7 | 2.71 ± 0.98 |  | 
QLIVTARTTRGLDPLFGMCEKFLQ [INTS4] | 2.15 ± 0.4 | 2.06 ± 0.3 |  | 
YNSFHKLRDRAERIASRAIDNAAD [SNX8] | 3.98 ± 0.43 | 4.14 ± 0.38 |  | 
NGINGELTSADRETAEEVSARIVQ [MAP2] | 5.23 ± 0.22 | 5.35 ± 0.18 |  | 
QEVTEPAVVAVDRQAIFPDTWTLT [PXN] | 4.06 ± 0.23 | 3.8 ± 0.36 |  | 
KSTMDAISAEGFTDIDIDTLCAVL [BTBD1] | 2.21 ± 0.22 | 2.33 ± 0.3 |  | 
LQCDAVNLAFGRRCEELEDARYKL [TEKT4] | 3.74 ± 0.26 | 3.64 ± 0.31 |  | 
KLSPLRDRLVVTECQLTHSHPACP [ZSWIM9] | 3.56 ± 0.38 | 3.55 ± 0.27 |  | 

Sequence | protein stability index [1] | protein stability index [2] | protein stability index (treatment: DMSO, c terminus: native) | protein stability index (treatment: MLN4924 1 uM, 8 h, c terminus: native)
ADIDHDQALAQAIKEAKEQHPDMS [EPB41L3] | 5.56 ± 0.17 | 5.51 ± 0.31 |  | 
SELIVHIFSFLPAPDRLRASASCS [FBXO33] | 2.76 ± 0.14 | 1.94 ± 0.35 |  | 
YADFERFSKVLEEAAAAEEGLREL [DAPK3] | 2.46 ± 0.18 |  |  | 
RSLLPSTEYQKQLLAAQVQLQCSP [FBF1] | 3.46 ± 0.41 | 3.73 ± 0.18 |  | 
RQSLEGLSVRSVFFGVFQSFVVLL [CLPTM1] | 2.04 ± 0.14 | 1.99 ± 0.25 |  | 
GEREPFAETDEHTGANTKKPEDTA [FAM9B] | 5.46 ± 0.22 | 5.54 ± 0.52 |  | 
QKDSYQPPGNVYWPLRGKREAMLE [SPAG8] | 3.58 ± 0.31 | 3.62 ± 0.41 |  | 
KQVCKIAALHGLEETKKLANKYLV [KLHL14] | 2.03 ± 0.31 | 2.35 ± 0.32 |  | 
GDSHYEIEIVHISTVQILTEGFPP [ZFYVE21] | 2.71 ± 0.8 | 2.85 ± 0.78 |  | 
NIIAIAATNNLYIFQDKVNSDMH [PPP2R2C] |  |  | 2.36 ± 0.49 | 2.09 ± 0.2
VDFLEPDSGTCPEVDEEGFTVRPD [FCHO1] | 5.45 ± 0.086 | 5.43 ± 0.1 |  | 
VDIGMMKEFILTDEEVQRKREMIL [VDR] | 3.24 ± 0.19 | 3.24 ± 0.19 |  | 
AREGGGCGRSEVRPVAPRRPRDAV [SMAD6] | 4.43 ± 0.26 | 4.36 ± 0.21 |  | 
TFRQYCGAACTCHVRNPLSACSIM [RNF208] | 2.21 ± 0.4 | 2.2 ± 0.27 |  | 
FLPGGDMMTLLMKKDTLTEEETQF [STK38L] | 2.89 ± 0.6 | 3.44 ± 0.51 |  | 
FNMWGFGRVSKQASQPVKKQQENA [WDR41] | 3.12 ± 0.25 | 3.54 ± 0.18 |  | 
WVTFQVLLYTSLPDFCHKFLPGYV [DHCR7] | 3.4 ± 0.055 | 3.01 ± 0.91 |  | 
MQIEFIKQGSMNFRFIPVLFPNAK [TRAF3IP2] | 2.96 ± 0.71 | 2.45 ± 0.58 |  | 
KTLQPTKQPNCSSLFKLKPLSNKT [PLD5] | 3.08 ± 0.17 | 3.09 ± 0.35 |  | 
ETSRSHDLEAVVPQNGSETGWARK [ATP23] | 4.95 ± 0.2 | 5.21 ± 0.12 |  | 

From the supplement of paper PMC10567573
